Biological target: T1, trem2_human TREM2 (UniProt Q9NZC2)
T1 sequence: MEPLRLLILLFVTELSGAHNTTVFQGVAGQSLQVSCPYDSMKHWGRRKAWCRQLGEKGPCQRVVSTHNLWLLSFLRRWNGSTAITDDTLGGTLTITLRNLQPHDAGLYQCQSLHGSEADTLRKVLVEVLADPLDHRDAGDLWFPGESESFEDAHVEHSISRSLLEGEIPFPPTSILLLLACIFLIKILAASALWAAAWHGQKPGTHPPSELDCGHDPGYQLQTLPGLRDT

Presenilin-1 (Homo sapiens) (from UniProt P49768) D385A
effect of a mutation on the interaction: with no effect

From IntAct's records for PubMed 29611543
